Laboratory results from patent US8986655.

Molecular target: prostate-specific membrane antigen (PSMA), dimeric isoform (UniProt Q04609)
Assay: phage-displayed ELISA on 1 µg/mL PSMA dimer, HRP activity

prostate-specific membrane antigen (PSMA), dimeric isoform, sequence (Q04609 44-750): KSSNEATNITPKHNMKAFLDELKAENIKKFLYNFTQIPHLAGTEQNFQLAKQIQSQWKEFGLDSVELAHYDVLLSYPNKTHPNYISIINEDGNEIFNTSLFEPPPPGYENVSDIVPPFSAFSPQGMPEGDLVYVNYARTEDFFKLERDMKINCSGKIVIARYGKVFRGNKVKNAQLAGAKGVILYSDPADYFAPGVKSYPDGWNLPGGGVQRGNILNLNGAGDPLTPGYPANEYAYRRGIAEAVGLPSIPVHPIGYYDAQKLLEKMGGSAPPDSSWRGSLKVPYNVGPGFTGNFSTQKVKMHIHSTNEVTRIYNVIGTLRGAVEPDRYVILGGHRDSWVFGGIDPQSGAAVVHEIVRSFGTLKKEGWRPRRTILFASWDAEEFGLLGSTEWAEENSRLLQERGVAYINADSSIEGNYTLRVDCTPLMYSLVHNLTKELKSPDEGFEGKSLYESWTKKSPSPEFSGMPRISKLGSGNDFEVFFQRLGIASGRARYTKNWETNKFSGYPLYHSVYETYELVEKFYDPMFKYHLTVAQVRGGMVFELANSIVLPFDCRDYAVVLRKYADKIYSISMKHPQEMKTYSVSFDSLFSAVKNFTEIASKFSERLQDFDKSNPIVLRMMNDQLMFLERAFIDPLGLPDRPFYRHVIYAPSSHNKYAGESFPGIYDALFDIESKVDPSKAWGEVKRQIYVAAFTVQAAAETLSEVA

With “phage-displayed peptide 1, CALCEFLG [SEQ ID NO: 1]” the EC50 (read off the curve) was 0.2 nM.
